# Source: US20250346668A1 (GENOR BIOPHARMA, published 2025)
# Experiments:
# [1] = target: T1, human CD3e/g antigen (ACRO, catalog number CDG-H52W5) (human, UniProt P07766 23-126; P09693 23-116); test: SPR (Biacore 8K), antibody captured via anti-human Fc
# T1 construct: Bought reagent used as the Biacore analyte; also called hCD3e/g
# How it was run: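 Anti-human IgG (Fc) antibody amine-coupled on CM5 chip captures CD3 antibodies; antigen injected at a concentration series. Association and dissociation curves fitted kinetically to give equilibrium dissociation constant.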
# CD3 on Jurkat cells [2] = target: T2, CD3 on Jurkat cells (human); test: FACS on Jurkat cells, Alexa 488 secondary antibody, MFI [b]
# T2 construct: native, on the surface of Jurkat cells; The sheets print only 'Jurkat'; also called human CD3; TCR/CD3 complex on the human T cell line Jurkat
# Protocol: (§1) Jurkat cells were amplificatorily cultured to 3×10⁶/ml in a T-175 cell culture flask, the culture medium was removed by centrifugation, and the cells were washed twice with PBS buffer (purchased from Invitrogen). After cell counting, the cells were diluted to 2×10⁶ cells/ml with PBS buffer, added with 1% BSA blocking solution, where the percentage was a mass percentage, incubated on ice for 30 minutes, and then washed twice with PBS buffer by centrifugation. The collected cells were suspended to 2×10⁶ cells/mL with FACS buffer (PBS+1% BSA, where the percentage was a mass percentage), and added to a 96-well FACS reaction plate at 100 μl per well, and samples of the purified CD3 antibodies obtained in Example 4 to be tested were added at 100 μl per well, and incubated at 4° C. for 2 hours. The plate was washed twice with FACS buffer by centrifugation, added with 100 μl per well of fluorescent (Alexa 488) labeled secondary antibody (purchased from Jackson), and incubated at 4° C. for 1 hour. After washing 3 times by centrifugation with FACS buffer, the cells were suspended with 100 μl of FACS buffer, and detected and analyzed using BD FACS LSRFortessa (purchased from BD). The results are shown in FIG. 5, where the IgG control is human IgG1 (hIgG).
# CD3 on Jurkat cells [3] = target: T2, CD3 on Jurkat cells; test: FACS on Jurkat cells, Alexa 488 secondary antibody, MFI [c]
# Protocol: as §1
# CD3 on Jurkat cells [4] = target: T2, CD3 on Jurkat cells; test: FACS on Jurkat cells, Alexa 488 secondary antibody, MFI [d]
# Protocol: as §1
binder,measurement,setting,value
"CAb007 (antibody, V domains shown, Chimeric: mouse variable regions linked to human light and heavy constant regions; constant regions not specified) VH: QVQLQQSGPELVKPGASVKISCKASGSTFTDNYIHWVKQRPGQGLEWIGWIYPGSVNIKYNEKFKDKATLTADTSSTTAYMQLSSLSSEDSAIYYCARDISRYYFDYWGQGTTLTVSS VL: DIVMSQSPSSLAVSAGERVTMNCKSSQSLLNSRTRKNYLAWYQQKPGQSPKLLIYWASTRESGVPDRFTGSGSGTDFTLTISSVQAEDLAVYYCKQSFILRTFGGGTKLAIK",Kd,[1],12.1 nM
same,koff,[1],0.00532 s⁻¹
same,kon,[1],438000 M⁻¹ s⁻¹
same,EC50 (read off the curve),CD3 on Jurkat cells [2],~0.1 nM
"hAb008-26 (antibody, V domains shown, Humanized; constant regions not specified) VH: QVQLVQSGAEVKKPGASVKVSCKASGYTFTDYTVNWVRQAPGQRLEWIGYINPFNSYTKYNQKFKDRATITADTSASTAYMELSSLRSEDTAVYFCANSVSTYWGQGTTVTVSS VL: DVVMTQSPLSLPVTLGQPASISCKSSQSLLDSDGKTYLNWLQQRPGQSPRRLIQLVSKLNSGVPDRFSGSGSGTDFTLKISRVEAEDVGVFYCWQGTHFPRTFGGGTKLEIK",Kd,[1],18.1 nM
same,koff,[1],0.00482 s⁻¹
same,kon,[1],266000 M⁻¹ s⁻¹
same,EC50 (read off the curve),CD3 on Jurkat cells [3],~2 nM
"CAb008 (antibody, V domains shown, Chimeric: mouse variable regions linked to human light and heavy constant regions; constant regions not specified) VH: QVQLQQSGAELARPGASVKMSCKTSGYTFTDYTVNWVKQRPGQGLEWIGYINPFNSYTKYNQKFKDKATLTADKSSSTAYMQLSSLTSEDSAVYFCANSVSTYWGQGTTLTVSS VL: not shown",Kd,[1],21.2 nM
same,koff,[1],0.00372 s⁻¹
same,kon,[1],176000 M⁻¹ s⁻¹
same,EC50 (read off the curve),CD3 on Jurkat cells [4],~3 nM
